This is an account of results in patent US20160130324A1.

The target in this experiment is rhC1s (human) (UniProt P09871). The experiment can be described thus: inhibition of C1s cleavage of a colorimetric peptide substrate, mean OD value; C is the midpoint of the 4-parameter fit.

By IC50 is commonly meant the concentration that gives 50% inhibition. Low values mean higher potency, high ones lower potency.

Chain of rhC1s (human) (P09871 16-688 limits assumed): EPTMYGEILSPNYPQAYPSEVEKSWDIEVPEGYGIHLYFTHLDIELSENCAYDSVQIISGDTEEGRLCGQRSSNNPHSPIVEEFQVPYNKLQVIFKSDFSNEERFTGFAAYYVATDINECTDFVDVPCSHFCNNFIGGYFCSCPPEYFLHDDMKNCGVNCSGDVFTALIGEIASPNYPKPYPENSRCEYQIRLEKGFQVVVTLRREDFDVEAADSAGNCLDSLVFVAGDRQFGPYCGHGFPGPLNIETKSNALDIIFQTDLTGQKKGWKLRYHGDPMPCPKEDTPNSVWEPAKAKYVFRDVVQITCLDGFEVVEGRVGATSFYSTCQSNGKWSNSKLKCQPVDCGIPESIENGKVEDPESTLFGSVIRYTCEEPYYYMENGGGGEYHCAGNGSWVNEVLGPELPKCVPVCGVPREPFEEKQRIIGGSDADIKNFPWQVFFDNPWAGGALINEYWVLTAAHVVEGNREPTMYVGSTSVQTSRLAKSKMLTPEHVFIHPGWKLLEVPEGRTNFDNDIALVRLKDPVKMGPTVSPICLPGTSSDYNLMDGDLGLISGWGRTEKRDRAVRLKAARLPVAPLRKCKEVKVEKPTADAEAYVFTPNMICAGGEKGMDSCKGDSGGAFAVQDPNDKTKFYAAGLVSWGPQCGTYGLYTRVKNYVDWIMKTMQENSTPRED

As for HSA-C1-INH, the IC50 is 1.67 nM. The substance HSA_D3-C1-INH yielded a half-inhibitory concentration (IC50) of 1.45 nM.
